This note sets out measurements from publication doi:10.1101/2022.07.21.500383 (bioRxiv, 2022).

Assay in all cases: ITC
In general terms: ITC needs no label: the signal is the heat of the interaction.

In assay [1] the target is T1, IL-11Δ10/IL-11Rα_(D1-D3) binary complex (human, UniProt P20809 32-199; Q14626 23-317).
T1 sequence 1: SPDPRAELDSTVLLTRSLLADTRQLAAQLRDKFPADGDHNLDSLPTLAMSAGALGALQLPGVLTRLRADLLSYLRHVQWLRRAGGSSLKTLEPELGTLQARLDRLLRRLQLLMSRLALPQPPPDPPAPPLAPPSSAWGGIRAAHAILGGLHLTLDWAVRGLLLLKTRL
T1 sequence 2: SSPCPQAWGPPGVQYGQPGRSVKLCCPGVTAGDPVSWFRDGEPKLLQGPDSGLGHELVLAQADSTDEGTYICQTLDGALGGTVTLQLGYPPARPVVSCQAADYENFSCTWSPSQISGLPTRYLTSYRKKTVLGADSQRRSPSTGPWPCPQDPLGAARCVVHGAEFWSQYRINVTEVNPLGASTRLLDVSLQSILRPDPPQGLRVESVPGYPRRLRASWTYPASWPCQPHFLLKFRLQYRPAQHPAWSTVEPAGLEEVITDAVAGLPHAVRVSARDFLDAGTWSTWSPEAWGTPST

Assay [2] deals with IL-11_(Δ10/W147A)/IL-11Rα_(D1-D3) binary complex (human) (UniProt P20809).
Assay [3] addresses IL-11_(Δ10/PAIDY)/IL-11Rα_(D1-D3) binary complex (human) (UniProt P20809).
Assay [4] deals with IL-11_(Δ10/Mutein)/IL-11Rα_(D1-D3) binary complex (human) (UniProt P20809).

B1: gp130EC (complete extracellular domains of gp130, D1-D6) (receptor, human, UniProt P40189 23-619, looked up)
chain: ELLDPCGYISPESPVVQLHSNFTAVCVLKEKCMDYFHVNANYIVWKTNHFTIPKEQYTIINRTASSVTFTDIASLNIQLTCNILTFGQLEQNVYGITIISGLPPEKPKNLSCIVNEGKKMRCEWDGGRETHLETNFTLKSEWATHKFADCKAKRDTPTSCTVDYSTVYFVNIEVWVEAENALGKVTSDHINFDPVYKVKPNPPHNLSVINSEELSSILKLTWTNPSIKSVIILKYNIQYRTKDASTWSQIPPEDTASTRSSFTVQDLKPFTEYVFRIRCMKEDGKGYWSDWSEEASGITYEDRPSKAPSFWYKIDPSHTQGYRTVQLVWKTLPPFEANGKILDYEVTLTRWKSHLQNYTVNATKLTVNLTNDRYLATLTVRNLVGKSDAAVLTIPACDFQATHPVMDLKAFPKDNMLWVEWTTPRESVKKYILEWCVLSDKAPCITDWQQEDGTVHRTYLRGNLAESKCYLITVTPVYADGPGSPESIKAYLKQAPPSKGPTVRTKKVGKNEAVLEWDQLPVDVQNGFIRNYTIFYRTIIGNETAVNVDSSHTEYTLSSLTSDTLYMVRMAAYTDEGGKDGPEFTFTTPKFAQGEIE
modifications: N-linked glycans at N21, N61, N135 (visible in the structures)
On to B1, for which, in assay [1], the dH is -4.78 kcal/mol.

B2: gp130_(D2-D3) (receptor, human, UniProt P40189 123-325, looked up)
chain: GLPPEKPKNLSCIVNEGKKMRCEWDGGRETHLETNFTLKSEWATHKFADCKAKRDTPTSCTVDYSTVYFVNIEVWVEAENALGKVTSDHINFDPVYKVKPNPPHNLSVINSEELSSILKLTWTNPSIKSVIILKYNIQYRTKDASTWSQIPPEDTASTRSSFTVQDLKPFTEYVFRIRCMKEDGKGYWSDWSEEASGITYEDR
Broadly, the Kd is a measure of binding affinity in units of concentration. Higher therefore signals a looser complex. Take B2: the Kd is 130 nM in assay [2], 60 nM in assay [3] and 380 nM in assay [1]. The same molecule registered a dH in assay [1] of 6.45 kcal/mol.

B3: gp130_(D1-D3) (cytokine binding domains of gp130) (receptor, human)
chain: ELLDPCGYISPESPVVQLHSNFTAVCVLKEKCMDYFHVNANYIVWKTNHFTIPKEQYTIINRTASSVTFTDIASLNIQLTCNILTFGQLEQNVYGITIISGLPPEKPKNLSCIVNEGKKMRCEWDGGRETHLETNFTLKSEWATHKFADCKAKRDTPTSCTVDYSTVYFVNIEVWVEAENALGKVTSDHINFDPVYKVKPNPPHNLSVINSEELSSILKLTWTNPSIKSVIILKYNIQYRTKDASTWSQIPPEDTASTRSSFTVQDLKPFTEYVFRIRCMKEDGKGYWSDWSEEASGITYEDR
modifications: N-linked glycans at N21, N61, N135 (visible in the structures)
Turning to B3, the dissociation constant (Kd) in assay [3] was found to be 20 nM; in assay [4], 55 nM; in assay [1] it was 3 nM. Moreover, in assay [1], the dH was -8.13 kcal/mol.
